From US20240270821A1, “GIP/GLP1/GCG TRI-RECEPTOR AGONISTS AND USES THEREOF” (priority 2023, published 2024)

T1: human GIP receptor (human) (UniProt P48546)
T1 sequence (looked up): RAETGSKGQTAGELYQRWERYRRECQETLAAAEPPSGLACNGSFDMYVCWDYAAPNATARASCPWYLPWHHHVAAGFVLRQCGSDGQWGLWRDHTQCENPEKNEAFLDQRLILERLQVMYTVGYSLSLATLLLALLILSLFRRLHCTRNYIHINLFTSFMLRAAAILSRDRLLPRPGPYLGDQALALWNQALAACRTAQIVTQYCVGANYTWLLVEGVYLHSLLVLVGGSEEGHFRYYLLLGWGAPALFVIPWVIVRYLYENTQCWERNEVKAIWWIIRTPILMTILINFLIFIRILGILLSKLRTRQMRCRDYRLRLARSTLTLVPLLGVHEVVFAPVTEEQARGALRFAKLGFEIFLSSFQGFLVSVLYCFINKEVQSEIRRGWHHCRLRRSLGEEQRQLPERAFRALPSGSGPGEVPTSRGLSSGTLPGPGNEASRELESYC


Key:
Assay in all cases: cell-based or functional assay
hGLP-1R = hGLP-1R (Homo sapiens, UniProt P43220)
[1] = biological target: T1, human GIP receptor (human)
[2] = biological target: human glucagon receptor (human) (UniProt P47871)
Chain of human glucagon receptor (human) (P47871 26-477): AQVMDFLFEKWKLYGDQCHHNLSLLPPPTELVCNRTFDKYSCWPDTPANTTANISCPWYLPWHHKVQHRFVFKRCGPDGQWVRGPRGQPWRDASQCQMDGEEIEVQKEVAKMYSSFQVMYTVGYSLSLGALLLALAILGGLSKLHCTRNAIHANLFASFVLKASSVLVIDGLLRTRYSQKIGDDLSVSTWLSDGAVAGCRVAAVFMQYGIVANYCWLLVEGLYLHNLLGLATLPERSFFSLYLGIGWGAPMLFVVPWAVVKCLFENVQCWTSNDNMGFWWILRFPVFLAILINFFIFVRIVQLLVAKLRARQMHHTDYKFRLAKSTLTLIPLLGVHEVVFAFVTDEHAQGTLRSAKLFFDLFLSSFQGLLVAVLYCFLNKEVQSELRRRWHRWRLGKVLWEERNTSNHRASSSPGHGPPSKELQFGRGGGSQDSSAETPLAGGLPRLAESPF

Chain of hGLP-1R (P43220 24-463): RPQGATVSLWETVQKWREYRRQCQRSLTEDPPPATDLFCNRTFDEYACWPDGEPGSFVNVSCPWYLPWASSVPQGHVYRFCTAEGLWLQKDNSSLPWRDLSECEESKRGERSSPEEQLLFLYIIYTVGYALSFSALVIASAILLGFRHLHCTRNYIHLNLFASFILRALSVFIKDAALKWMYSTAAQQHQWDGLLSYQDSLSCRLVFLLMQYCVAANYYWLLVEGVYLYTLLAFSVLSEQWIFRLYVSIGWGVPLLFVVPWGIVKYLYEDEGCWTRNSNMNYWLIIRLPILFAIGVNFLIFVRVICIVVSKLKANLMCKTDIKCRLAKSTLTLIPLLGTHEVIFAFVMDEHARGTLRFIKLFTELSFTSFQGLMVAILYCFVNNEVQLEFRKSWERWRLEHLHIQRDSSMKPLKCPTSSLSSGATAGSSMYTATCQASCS

Binder | Relative cAMP EC50 (hGLP-1R) [nM] | cAMP Rel EC50 (1% HSA) (hGLP-1R) [nM] | Relative cAMP EC50 [1] [nM] | cAMP Rel EC50 (1% HSA) [1] [nM] | Relative cAMP EC50 [2] [nM] | cAMP Rel EC50 (1% HSA) [2] [nM] | cAMP Rel EC50, nM (in the presence of 1% HSA) (hGLP-1R) [nM] | cAMP Rel EC50, nM (in the presence of 1% HSA) [1] [nM] | cAMP Rel EC50, nM (in the presence of 1% HSA) [2] [nM] | cAMP Rel EC50 (in the presence of 1% HSA) (hGLP-1R) [nM] | cAMP Rel EC50 (in the presence of 1% HSA) [1] [nM] | cAMP Rel EC50 (in the presence of 1% HSA) [2] [nM]
YXQGTXTSDXXIXLDXKAQXNFIEXLQEGGPSSGEPPPEGTE (synthetic construct; SITE 2: note = 2-Aminoisobutyric Acid; SITE 6: note = alpha-methyl-2-fluoro-L-phenylalanine; SITE 10: note = 3-(4-Pyridyl)-L-alanine; SITE 11: note = alpha-methyl-L-serine; SITE 13: note = alpha-methyl-leucine; SITE 16: note = L-ornithine; SITE 17: note = Lysine is chemically mo) [Example 526] | 0.421 | 22.9 | 0.0364 | 2.12 | 8.62 | 530 |  |  |  |  |  | 
YXQGTXTSDXXILLDXKAQXXFIEYLIEGGPSSGEPPPSGTE (synthetic construct; SITE 2: note = 2-Aminoisobutyric Acid; SITE 6: note = alpha-methyl-2-fluoro-L-phenylalanine; SITE 10: note = 3-(4-Pyridyl)-L-alanine; SITE 11: note = alpha-methyl-L-serine; SITE 16: note = L-ornithine; SITE 17: note = Lysine is chemically modified through conjugation of the epsi) [Example 531] | 0.356 | 37.8 | 0.0694 | 5.2 | 3.79 | 465 |  |  |  |  |  | 
YXQGTXTSDXXIXLDXKAQXXFIEYLSEGGPSSGEPPPSGTE (synthetic construct; SITE 2: note = 2-Aminoisobutyric Acid; SITE 6: note = alpha-methyl-2-fluoro-L-phenylalanine; SITE 10: note = 3-(4-Pyridyl)-L-alanine; SITE 11: note = alpha-methyl-L-serine; SITE 13: note = alpha-methyl-leucine; SITE 16: note = L-ornithine; SITE 17: note = Lysine is chemically mo) [Example 530] | 4.91 | 437 | 0.874 | 63.7 | 17.1 | 1280 |  |  |  |  |  | 
YXQGTXTSDXXIXLDXKAQXXFIEYLLEGGPSSGEPPPSGTE (synthetic construct; SITE 2: note = 2-Aminoisobutyric Acid; SITE 6: note = alpha-methyl-2-fluoro-L-phenylalanine; SITE 10: note = 3-(4-Pyridyl)-L-alanine; SITE 11: note = alpha-methyl-L-serine; SITE 13: note = alpha-methyl-leucine; SITE 16: note = L-ornithine; SITE 17: note = Lysine is chemically mo) [Example 532] | 0.577 | 47.3 | 0.0159 | 1.49 | 1.37 | 157 |  |  |  |  |  | 
YXQGTXTSDXXIXLDXKAQXXFIEXLTEGGPSSGEPPPSGTE (synthetic construct; SITE 2: note = 2-Aminoisobutyric Acid; SITE 6: note = alpha-methyl-2-fluoro-L-phenylalanine; SITE 10: note = 3-(4-Pyridyl)-L-alanine; SITE 11: note = alpha-methyl-L-serine; SITE 13: note = alpha-methyl-leucine; SITE 16: note = L-ornithine; SITE 17: note = Lysine is chemically mo) [Example 542] | 0.388 | 29.6 | 0.0336 | 1.69 | 5.03 | 256 |  |  |  |  |  | 
YXQGTXTSDXXIXLDXKAQXQFIEXLQEGGPSSGEPPPEGTE (synthetic construct; SITE 2: note = 2-Aminoisobutyric Acid; SITE 6: note = alpha-methyl-2-fluoro-L-phenylalanine; SITE 10: note = 3-(4-Pyridyl)-L-alanine; SITE 11: note = alpha-methyl-L-serine; SITE 13: note = alpha-methyl-leucine; SITE 16: note = L-ornithine; SITE 17: note = Lysine is chemically mo) [Example 528] | 0.434 | 24.3 | 0.0333 | 1.55 | 7 | 474 |  |  |  |  |  | 
YXQGTXTSDXXIXLDXKAQXXFIEXLAEGGPSSGEPPPSGTE (synthetic construct; SITE 2: note = 2-Aminoisobutyric Acid; SITE 6: note = alpha-methyl-2-fluoro-L-phenylalanine; SITE 10: note = 3-(4-Pyridyl)-L-alanine; SITE 11: note = alpha-methyl-L-serine; SITE 13: note = alpha-methyl-leucine; SITE 16: note = L-ornithine; SITE 17: note = Lysine is chemically mo) [Example 544] | 0.623 | 43 | 0.041 | 2.4 | 2.71 | 171 |  |  |  |  |  | 
YXQGTXTSDXXILLDXKAQXXFIEXLQEGGPSSGEPPPEGAE (synthetic construct; SITE 2: note = 2-Aminoisobutyric Acid; SITE 6: note = alpha-methyl-2-fluoro-L-phenylalanine; SITE 10: note = 3-(4-Pyridyl)-L-alanine; SITE 11: note = alpha-methyl-L-serine; SITE 16: note = L-ornithine; SITE 17: note = Lysine is chemically modified through conjugation of the epsi) [Example 546] | 0.517 | 34.4 | 0.25 | 11.9 | 3.67 | 225 |  |  |  |  |  | 
YXQGTFTSDFSKXLDKKAQXAFIEYLLEGGPSSGAPPPXEG (synthetic construct; SITE 2: note = 2-Aminoisobutyric Acid; SITE 13: note = alpha-methyl-leucine; SITE 17: note = Lysine is chemically modified through conjugation of the epsilon-amino group of the Lysine side chain with (2-[2-(2-Amino-ethoxy)-ethoxy]-acetyl)-(gamma-Glu)-CO-(CH2) 18-CO2H; SITE 20: n) [Example 52] | 5.18 |  | 0.449 |  | 5.84 |  | 1250 | 111 | 1740 |  |  | 
YXQGTFTSDFSKXLDKKAQXAFIEYLLEGGPSSGAPPPXGE (synthetic construct; SITE 2: note = 2-Aminoisobutyric Acid; SITE 13: note = alpha-methyl-leucine; SITE 17: note = Lysine is chemically modified through conjugation of the epsilon-amino group of the Lysine side chain with (2-[2-(2-Amino-ethoxy)-ethoxy]-acetyl)-(gamma-Glu)-CO-(CH2) 18-CO2H; SITE 20: n) [Example 53] | 3.31 |  | 0.518 |  | 4.19 |  | 1030 | 113 | 1780 |  |  | 
YXQGTXTSDXXIXLDXKAQXNFIEXLQEGGPSSGEPPPEGTGE (synthetic construct; SITE 2: note = 2-Aminoisobutyric Acid; SITE 6: note = alpha-methyl-2-fluoro-L-phenylalanine; SITE 10: note = 3-(4-Pyridyl)-L-alanine; SITE 11: note = alpha-methyl-L-serine; SITE 13: note = alpha-methyl-leucine; SITE 16: note = L-ornithine; SITE 17: note = Lysine is chemically mo) [Example 527] | 0.446 | 26.8 | 0.0386 | 2.6 | 6.99 | 580 |  |  |  |  |  | 
YXQGTXTSDXXIXLDXKAQXXFIEXLTEGGPSSGEPPPEGTEE (acylated Lys (γGlu)2-C18 diacid; non-natural residues; C-terminal amide; synthetic construct; SITE 2: note = 2-Aminoisobutyric Acid; SITE 6: note = alpha-methyl-2-fluoro-L-phenylalanine; SITE 10: note = 3-(4-Pyridyl)-L-alanine; SITE 11: note = alpha-methyl-L-serine; SITE 13: note = alpha-methyl-leucine; SITE 16: note = L-ornithine; SITE 17: note = Lysine is chemically mo) [Example 597] | 0.6 |  | 0.0643 |  | 5.2 |  |  |  |  | 36.4 | 2.38 | 329
YXQGTXTSDXXIXLDXKAQXXFIEXLTEGGPSSGEPPPSGTGE (synthetic construct; SITE 2: note = 2-Aminoisobutyric Acid; SITE 6: note = alpha-methyl-2-fluoro-L-phenylalanine; SITE 10: note = 3-(4-Pyridyl)-L-alanine; SITE 11: note = alpha-methyl-L-serine; SITE 13: note = alpha-methyl-leucine; SITE 16: note = L-ornithine; SITE 17: note = Lysine is chemically mo) [Example 543] | 0.41 | 32 | 0.0319 | 1.88 | 4.56 | 300 |  |  |  |  |  | 
